From article doi:10.1101/2025.08.06.668955, “High-Affinity, Structure-Validated and Selective Macrocyclic Peptide Tools for Chemical Biology Studies of Huntingtin” (bioRxiv, 2025) come the findings set out here.

Where a SMILES comes first, the peptide text is derived from it. Bridges are numbered along the chain shown (N, C = ends). Primed or numbered codes have the meaning given here. Where no end group is shown, it is not given here. [ ]: non-standard residue; d: D form. The star is where a group is joined. FITC″ = fluorescein isothiocyanate; ClAc = O=C(CCl)*

The target of assay [1] is T1, HTTQ23-HAP40 (Homo sapiens, UniProt P23610+P42858, INS38QQ).
T1 construct: Full-length wildtype HTT with a polyQ tract of 23 glutamines; FLAG; made in house; host or cells: Sf9 insect cells (baculovirus)
Briefly: Thermal shift assay (DSF), HTTQ23-HAP40. It is filed as binding. The note with it: SYPRO Orange, 0.25 mg/mL protein, macrocycle up to 10 μM, 2.5% DMSO, n=3. The procedure:
In an Axygen® 384-well PCR microplate (REF# PCR-384-LC480-W-NF, Corning), samples were mixed to yield a final concentration of 0.25 mg/mL Q54 or Q23/HAP40, a 5-pt 2-fold serial dilution of each macrocycle (top concentration of 10 μM, 2.5% DMSO), and 5X SYPRO™ Orange (CAT# S6650, Thermo Fisher Scientific) in buffer (20 mM HEPES pH 7.4, 150 mM NaCl, 1 mM TCEP, 0.005% Tween-20). Differential Scanning Fluorimetry (DSF) was performed using a LightCycler® 480 (Roche LifeSciences) set to a 4 °C/min temperature ramp (20–95 °C) and fluorescence detection at 580 nm. Melting temperatures (Tm) were obtained from the minima of the negative derivative of each curve. The propagated error of the thermal shift (ΔTm) was calculated from the standard deviation of each Tm mean (n=3). To ensure a maximally macrocycle-bound fraction (KD ~10 nM; ~100% bound) at 0.25 mg/mL HTT or HTT-HAP40 (~0.7 μM), the upper limit of macrocycle tested was 10 μM.
98 Supplementary Figure. 10. Thermal shift (ΔTm) induced by macrocycle binding. Melting
99 temperature of HTTQ54 (left) with HL5 or HL2 minus HTTQ54 with DMSO (46.5 °C), and (right)
100 HTTQ23-HAP40 with HD4, HL2, HL5, HHD2, HHD3, or HHL1 minus HTTQ23-HAP40 with DMSO
101 (51.0 °C). ΔTm significance was determined using an unpaired t-test with Welch correction,
102 comparing to the mean Tm of Q54 or Q23-HAP40 with DMSO; *P < 0.05, **P < 0.01, ***P <
103 0.001. The summary table reports the ΔTm and exact P value at the highest concentration tested
(§1) (1 picture or pasted object on this page, not shown here)

Another assay relates to HTT-HAP40 or HTT (HL5). Briefly: FP displacement assay, FITC-labeled and unlabeled macrocycle pairs. The format is binding. To be noted: FITC-labeled HHL1 on HTT-HAP40; biological singlet in technical triplicate.
From the text: We further verified the specificity of binding of the macrocycles for HTT and HTT-HAP40 by displacement assay (Supplementary Figure 3) with FITC-labeled and unlabeled macrocycle pairs. All labelled macrocycles were displaced by their sequence-matched unlabeled macrocycle, with IC50 values in the nanomolar range.
57 Supplementary Figure 3. Displacement of fluorescently labeled macrocycles. a, Schematic for
58 assay. b, Each fluorescently labeled macrocycle is displaced by its unlabeled partner from HTT-
59 HAP40 or HTT (HL5) Conducted as a biological singlet in technical triplicate. c, Fluorescently
60 labeled HHL1 is displaced by itself and HHD3, but no other macrocycle.
as §1

In a further assay the test system is HAP40. Kind of assay: Macrocycle precipitation (MP), co-purification of HAP40, LC-MS/MS. The format is binding, human. The note with it: HEK293T lysate versus HTT CRISPR knockout line. The text has this: To assess macrocycle selectivity and identify potential HTT interacting proteins, we performed LC-MS/MS analysis of the proteins in the MP eluates. To control for non-specific binding, we performed MPs using lysates from a HTT CRISPR knockout cell line ([Jung et al., 2021]). Across all macrocycles, HTT emerged as the most enriched protein after background subtraction (Figure 5b). Given we performed affinity purification using macrocycles targeting distinct HTT surfaces, we hypothesized that any real HTT protein binder might be co-purified with two or more macrocycles. […] In contrast, HAP40 was not enriched by HL5, consistent with its specificity for apo HTT.
Macrocycles were pre-conjugated to streptavidin beads (Cytiva, 17-5113-01) by incubating with a 30 μL slurry of beads per macrocycle purification (MP) in Lysis Buffer (10 mM Tris-HCl, pH 7.9, 150 mM NaCl, 0.1% NP-40, 1:500 protease inhibitor cocktail (Sigma-Aldrich), 1:1,000 benzonase nuclease, and 2 mM MgCl2) for 1 hour at 4°C. A concentration of 1.25 μM macrocycle was used for conjugation. After incubation, beads were washed three times with 500 μL Lysis Buffer to remove unbound macrocycles and resuspended in 500 μL of lysate at 4 mg/mL protein concentration.
Cells were harvested by centrifugation at 1,500 rpm for 5 minutes, washed twice with PBS, and snap-frozen. Cell pellets were then resuspended in 500 μL of Lysis Buffer (as described above) and incubated on an end-over-end rotator at 4°C for 1 hour. Lysates were clarified by centrifugation at 20,000g for 15 minutes at 4°C, and the supernatant was transferred to fresh 1.5 mL Eppendorf tubes. Protein concentration was determined by BCA assay (Thermo Fisher Scientific, 23225), yielding approximately 4 mg of protein on average. Lysates were diluted to a final concentration of 4 mg/mL for use, providing […] of total protein per MP.
Macrocycle-conjugated beads were incubated with 2 mg of lysate in Lysis Buffer for 1 hour at 4°C with rotation. After incubation, beads were collected by centrifugation at 3,000 rpm, and the flow-through was saved for analysis. Beads were then washed sequentially with 1 mL of Wash Buffer 1 (10 mM Tris-HCl, pH 7.9, 100 mM NaCl, 0.1% NP-40) and twice with Wash Buffer 2 (Wash Buffer 1 without detergent). Lastly, bound proteins were eluted from the beads with 200 μL of 0.5 M NH4OH and flash-frozen in liquid nitrogen.
All sample preparation, LC MS/MS data collection, and MS data searches were carried out at the SPARC BioCentre at The Hospital for Sick Children (Toronto, ON, Canada). […] Samples were analyzed by liquid chromatography tandem mass spectrometry (LC-MS/MS) using an EASY-nanoLC 1200 system with a 1 h analysis and an Orbitrap Fusion™ Lumos™ Tribrid™ Mass Spectrometer (Thermo Fisher Scientific). […]

Assay [2] concerns the target C-terminally biotinylated HTTQ23 in complex with HAP40 (UniProt P23610 1-371, biotin on the C-terminal Avi-tag). Kind of assay: SPR. On the technique in general: SPR reads the build-up and loss of mass on a sensor chip optically.
Assay [3] addresses T2, 40-kDa huntingtin-associated protein (HAP40), chain of the HTT-HAP40 complex used for cryo-EM (UniProt P23610 1-371).
T2 construct: 40-kDa huntingtin-associated protein (HAP40); model built from PDB 6X90; The HAP40 chain of m26, for the pairs that touch in the structures
T2 sequence (looked up): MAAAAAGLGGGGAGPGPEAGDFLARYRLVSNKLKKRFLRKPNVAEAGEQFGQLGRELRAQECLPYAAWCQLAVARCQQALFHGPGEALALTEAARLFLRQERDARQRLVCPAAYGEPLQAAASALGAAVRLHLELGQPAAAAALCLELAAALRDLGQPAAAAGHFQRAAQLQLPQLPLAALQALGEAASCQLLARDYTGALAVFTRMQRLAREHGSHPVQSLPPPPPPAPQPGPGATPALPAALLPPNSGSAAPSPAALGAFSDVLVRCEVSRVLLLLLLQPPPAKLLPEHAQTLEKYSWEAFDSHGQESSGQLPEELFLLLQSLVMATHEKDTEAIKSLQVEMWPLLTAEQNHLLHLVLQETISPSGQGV
Kind of assay: cryo-EM structure; HTT-HAP40 macrocycle complexes at 0.2 mg/ml in 25 mM HEPES pH 7.4, 150 mM NaCl, 0.025% CHAPS on graphene grids; Complex1 (HHL1, HL2, HD4) and Complex2 (HHD3, HL2, HD4). To be noted: both partners purified.

In assay [4] the target is C-terminally biotinylated HTTQ23 (apo) (biotin on the C-terminal Avi-tag). Briefly: SPR.
In assay [5] the target is HTTQ23-HAP40 (UniProt P23610 1-371). Briefly: FP.
For another assay, the target named is HTTQ54 (apo). Briefly: FP.
The target of assay [6] is Full-length wildtype HTT with a polyQ tract of 23 glutamines, apo form (HTTQ23). Briefly: FP.
Full-length wildtype HTT with a polyQ tract of 23 glutamines, apo form (HTTQ23), sequence (P42858 other isoform, or with tags, fused parts or gaps): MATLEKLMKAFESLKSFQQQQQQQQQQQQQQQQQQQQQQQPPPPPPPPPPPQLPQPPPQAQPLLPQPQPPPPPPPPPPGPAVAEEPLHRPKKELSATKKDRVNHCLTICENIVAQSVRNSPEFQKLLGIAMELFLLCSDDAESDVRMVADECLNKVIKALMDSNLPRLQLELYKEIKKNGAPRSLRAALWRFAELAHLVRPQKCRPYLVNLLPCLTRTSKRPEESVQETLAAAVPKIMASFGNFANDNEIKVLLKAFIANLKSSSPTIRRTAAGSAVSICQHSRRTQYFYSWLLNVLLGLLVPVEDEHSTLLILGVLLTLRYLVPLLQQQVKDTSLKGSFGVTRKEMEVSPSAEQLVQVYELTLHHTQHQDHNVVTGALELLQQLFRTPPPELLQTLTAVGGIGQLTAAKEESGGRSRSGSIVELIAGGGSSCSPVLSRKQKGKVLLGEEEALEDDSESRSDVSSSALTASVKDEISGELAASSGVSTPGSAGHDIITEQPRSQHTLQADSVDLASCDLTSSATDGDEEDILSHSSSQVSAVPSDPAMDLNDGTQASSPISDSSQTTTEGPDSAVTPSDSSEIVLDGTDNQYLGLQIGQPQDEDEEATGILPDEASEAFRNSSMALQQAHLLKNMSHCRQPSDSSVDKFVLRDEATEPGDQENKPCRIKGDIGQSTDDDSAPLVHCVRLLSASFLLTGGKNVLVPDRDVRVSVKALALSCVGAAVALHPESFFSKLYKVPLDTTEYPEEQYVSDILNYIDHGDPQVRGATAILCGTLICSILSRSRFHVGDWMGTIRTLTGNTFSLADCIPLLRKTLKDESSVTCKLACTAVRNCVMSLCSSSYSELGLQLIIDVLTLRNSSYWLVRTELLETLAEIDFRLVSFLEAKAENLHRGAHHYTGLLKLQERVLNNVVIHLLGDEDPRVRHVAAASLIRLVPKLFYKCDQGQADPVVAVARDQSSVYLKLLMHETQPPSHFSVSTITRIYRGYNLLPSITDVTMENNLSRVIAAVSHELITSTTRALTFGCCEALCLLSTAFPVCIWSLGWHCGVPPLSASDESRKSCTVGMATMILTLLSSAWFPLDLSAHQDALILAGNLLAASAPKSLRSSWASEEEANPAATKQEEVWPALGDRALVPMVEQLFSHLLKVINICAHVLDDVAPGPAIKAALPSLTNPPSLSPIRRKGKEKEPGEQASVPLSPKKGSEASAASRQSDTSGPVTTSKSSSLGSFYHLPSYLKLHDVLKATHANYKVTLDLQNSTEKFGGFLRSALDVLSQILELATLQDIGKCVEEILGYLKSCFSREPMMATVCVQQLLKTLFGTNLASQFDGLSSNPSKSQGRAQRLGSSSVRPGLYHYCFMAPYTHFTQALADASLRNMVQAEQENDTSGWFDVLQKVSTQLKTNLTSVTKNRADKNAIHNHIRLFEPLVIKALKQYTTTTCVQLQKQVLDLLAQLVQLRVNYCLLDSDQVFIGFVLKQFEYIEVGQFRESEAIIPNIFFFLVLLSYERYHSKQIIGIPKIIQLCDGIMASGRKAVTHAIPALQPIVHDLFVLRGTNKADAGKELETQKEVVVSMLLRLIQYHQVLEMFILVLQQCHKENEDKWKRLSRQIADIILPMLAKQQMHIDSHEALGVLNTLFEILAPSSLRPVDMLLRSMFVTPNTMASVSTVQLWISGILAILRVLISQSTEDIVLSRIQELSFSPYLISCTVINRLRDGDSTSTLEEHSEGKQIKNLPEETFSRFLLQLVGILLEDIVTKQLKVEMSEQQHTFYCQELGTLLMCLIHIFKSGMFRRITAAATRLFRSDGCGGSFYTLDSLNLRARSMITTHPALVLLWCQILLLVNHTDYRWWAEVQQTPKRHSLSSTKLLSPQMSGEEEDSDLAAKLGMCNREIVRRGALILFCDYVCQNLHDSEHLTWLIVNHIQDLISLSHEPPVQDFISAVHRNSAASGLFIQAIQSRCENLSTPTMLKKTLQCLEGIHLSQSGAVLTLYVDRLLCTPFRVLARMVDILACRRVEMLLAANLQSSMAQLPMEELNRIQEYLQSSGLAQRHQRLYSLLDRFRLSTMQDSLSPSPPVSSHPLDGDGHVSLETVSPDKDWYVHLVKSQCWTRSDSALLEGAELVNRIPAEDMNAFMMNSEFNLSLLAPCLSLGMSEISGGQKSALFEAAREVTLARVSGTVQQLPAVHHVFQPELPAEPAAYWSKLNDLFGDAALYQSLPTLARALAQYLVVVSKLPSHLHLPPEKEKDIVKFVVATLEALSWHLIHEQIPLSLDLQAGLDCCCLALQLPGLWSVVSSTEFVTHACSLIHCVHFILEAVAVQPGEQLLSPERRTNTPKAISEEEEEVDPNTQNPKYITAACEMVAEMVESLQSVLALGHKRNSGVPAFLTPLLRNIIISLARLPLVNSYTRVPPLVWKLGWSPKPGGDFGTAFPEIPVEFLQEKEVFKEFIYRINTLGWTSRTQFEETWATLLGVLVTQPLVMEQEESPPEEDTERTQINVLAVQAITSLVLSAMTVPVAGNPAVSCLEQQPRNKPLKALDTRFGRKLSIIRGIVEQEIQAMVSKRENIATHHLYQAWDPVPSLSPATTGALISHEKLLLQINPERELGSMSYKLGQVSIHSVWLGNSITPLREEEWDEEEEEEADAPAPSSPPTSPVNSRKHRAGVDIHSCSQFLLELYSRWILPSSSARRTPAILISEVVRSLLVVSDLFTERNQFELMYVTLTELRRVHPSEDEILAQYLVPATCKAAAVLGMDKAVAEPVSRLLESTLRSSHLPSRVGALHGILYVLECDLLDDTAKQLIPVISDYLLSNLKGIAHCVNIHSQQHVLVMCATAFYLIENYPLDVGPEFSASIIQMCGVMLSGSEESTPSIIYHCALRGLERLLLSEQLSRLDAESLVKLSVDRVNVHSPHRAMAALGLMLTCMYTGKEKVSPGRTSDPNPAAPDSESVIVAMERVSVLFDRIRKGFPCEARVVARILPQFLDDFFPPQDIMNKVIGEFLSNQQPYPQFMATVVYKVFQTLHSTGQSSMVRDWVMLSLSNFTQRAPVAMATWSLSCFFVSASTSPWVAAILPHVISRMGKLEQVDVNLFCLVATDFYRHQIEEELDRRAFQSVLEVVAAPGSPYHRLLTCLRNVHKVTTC

T1 sequence (P42858 with tags, fused parts or gaps INS38QQ, one chain of several): as the sequence (P42858 other isoform, or with tags, fused parts or gaps) above, with H2311Y, I2788V counted along it
C-terminally biotinylated HTTQ23 in complex with HAP40, sequence (P42858 other isoform, or with tags, fused parts or gaps, chain 1 of 2, one chain of several): as the sequence (P42858 other isoform, or with tags, fused parts or gaps) above
C-terminally biotinylated HTTQ23 (apo) (biotin on the C-terminal Avi-tag), sequence (P42858 other isoform, or with tags, fused parts or gaps): as above

Consider `CC[C@H](C)[C@@H]1NC(=O)[C@H](Cc2c[nH]c3ccccc23)NC(=O)[C@H](Cc2c[nH]c3ccccc23)NC(=O)[C@H](CC(N)=O)NC(=O)[C@H](CC(N)=O)NC(=O)[C@H](CCC(N)=O)NC(=O)[C@H](Cc2c[nH]c3ccccc23)NC(=O)[C@H](Cc2c[nH]cn2)NC(=O)[C@H](CCCNC(=N)N)NC(=O)[C@H]([C@@H](C)O)NC(=O)[C@@H](Cc2ccc(O)cc2)NC(=O)CSC[C@@H](C(N)=O)NC(=O)[C@H](Cc2ccccc2)NC(=O)[C@H](CCC(=O)O)NC(=O)[C@H](Cc2c[nH]cn2)NC(=O)[C@H](Cc2ccc(O)cc2)NC(=O)[C@H](CC(C)C)NC1=O` [HHD3] ({CH2CO}-[dY]TRHWQNNWWILYHEFC-NH2; thioether N-17; C-terminus assumed), for which the “Thermal shift (ΔTm) of HTTQ23-HAP40 induced by macrocycle” value at HTTQ23-HAP40 [1] is given as “stabilized”. The “Displacement of fluorescently labeled HHL1 by unlabeled macrocycle” value in the assay with HTT-HAP40 or HTT (HL5) was “displaced”. The “Enrichment of HAP40 in macrocycle pulldowns” value with HAP40 is reported as “consistently enriched”.

For the molecule `CC[C@H](C)[C@@H]1NC(=O)[C@H](CC(C)C)NC(=O)[C@H](Cc2ccc(O)cc2)NC(=O)CSC[C@@H](C(N)=O)NC(=O)[C@@H]2CCCN2C(=O)[C@H](C(C)C)NC(=O)[C@H](CCC(=O)O)NC(=O)[C@H](C(C)C)NC(=O)[C@H](Cc2ccccc2)NC(=O)[C@H](C(C)C)NC(=O)[C@H](Cc2ccccc2)NC(=O)[C@H](Cc2c[nH]c3ccccc23)NC(=O)[C@H](CC(N)=O)NC(=O)[C@H](Cc2ccccc2)NC(=O)[C@H](CO)NC(=O)[C@H](CO)NC(=O)[C@H](CCCNC(=N)N)NC1=O` [HHL1] ({CH2CO}-YLIRSSFNWFVFVEVPC-NH2; thioether N-17; C-terminus assumed), the “Thermal shift (ΔTm) of HTTQ23-HAP40 induced by macrocycle” value at HTTQ23-HAP40 [1] is “stabilized”. Besides, the “Displacement of fluorescently labeled HHL1 by unlabeled macrocycle” value with HTT-HAP40 or HTT (HL5) is on record as “displaced”.

B1: HHL1 (peptide)
peptide: {CH2CO}-YLIRSSFNWFVFVEVPC
modifications: thioether N-17 (inferred)
notes: macrocyclic peptide selected by RaPID on HTT-HAP40; also called macrocycle HHL1; source: synthetic peptide (Fmoc SPPS, RP-HPLC), without tags
In turn, B1 returned a Kd in assay [2] of 7 nM. Also, the binding result in assay [3] is listed as “binds”.

As to {CH2CO}-YTHFQVAPWIQSLC (thioether N-14 (inferred)) [HL5], the Kd in assay [4] worked out at 10 nM.

B2: HHD3 (peptide)
peptide: {CH2CO}-[dY]TRHWQNNWWILYHEFC
modifications: thioether N-17 (inferred)
notes: macrocyclic peptide selected by RaPID on HTT-HAP40; printed with a superscript D before the first Y (D-tyrosine); also called macrocycle HHD3; source: synthetic peptide (Fmoc SPPS, RP-HPLC), without tags
As to B2, the binding result in assay [3] was “binds”.

B3: HD4 (peptide)
peptide: ClAc-[dY]DIWCETNKQTGILVLC
modifications: thioether (positions not given here); also: thioether to downstream Cys, which of Cys5/Cys17 not given here
In the case of B3, the Kd is 4.1 nM in [4] and 2.1 nM in [2].

B4: FITC-labeled HD4 (peptide)
peptide: ClAc-[dY]DIWCETNKQTGILVLC-{FITC″}
modifications: thioether (positions not given here); also: thioether to downstream Cys, which of Cys5/Cys17 not given here
Turning to B4, the Kd stood at 1.6 nM in the assay with HTTQ23-HAP40 [5], 1.5 nM in the assay with HTTQ54 (apo) and 7.3 nM in assay [6].

One may read the Kd as the free concentration of one partner at which half of the binding sites on the other are occupied at equilibrium, for simple one-to-one binding. Low values mean higher affinity, high ones lower affinity.
